Square brackets hold non-standard residues; d marks the D form. Ends that are not written are not given here. pS = N[C@@H](COP(=O)(O)O)C(=O)O
Columns and labels:
[1] = biological target: T1, human FLNC domains 18-21 (residues 1943-2408), EEF-tagged (human, UniProt Q14315 1943-2408); assay: native MS
T1 sequence: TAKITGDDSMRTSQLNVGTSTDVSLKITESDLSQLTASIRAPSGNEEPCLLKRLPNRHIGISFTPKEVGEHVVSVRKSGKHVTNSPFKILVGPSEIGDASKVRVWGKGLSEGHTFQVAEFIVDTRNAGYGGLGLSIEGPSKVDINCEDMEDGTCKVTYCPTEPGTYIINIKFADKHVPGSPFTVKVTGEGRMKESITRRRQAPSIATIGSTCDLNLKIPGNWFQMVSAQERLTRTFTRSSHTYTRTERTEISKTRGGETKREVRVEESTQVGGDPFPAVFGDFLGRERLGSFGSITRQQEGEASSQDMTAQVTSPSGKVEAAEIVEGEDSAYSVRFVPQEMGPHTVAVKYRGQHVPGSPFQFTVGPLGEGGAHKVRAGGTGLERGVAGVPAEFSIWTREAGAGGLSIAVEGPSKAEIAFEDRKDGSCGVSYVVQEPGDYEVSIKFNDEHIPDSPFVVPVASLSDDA

[2] = biological target: human HspB1 ACD (residues 84-170) (human, UniProt P04792 84-170); assay: crystal structure
Sequence of human HspB1 ACD (residues 84-170) (P04792 84-170): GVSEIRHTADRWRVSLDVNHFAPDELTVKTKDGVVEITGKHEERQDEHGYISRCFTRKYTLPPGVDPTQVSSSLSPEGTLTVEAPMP

B1: HspB1 peptide residues 80-88, unphosphorylated (peptide)
peptide: Ac-QLSSGVSEI
How did the Kd [1] turn out when B1 was run?
Its Kd is 130 ± 17 µM.

B2: HspB1 peptide residues 76-88 phosphorylated at Ser82 (peptide)
peptide: ALSRQL[pS]SGVSEI
Does B2 bind [2]?
Result: binds

B3: HspB1 peptide residues 80-88, phosphorylated (peptide)
peptide: Ac-QLSSGVSEI
modifications: not fully specified
For B3, which Kd [1] is on record?
Its Kd is 110 ± 10 µM.

— paper doi:10.1101/325712 (bioRxiv, 2018)
